Each molecule was assayed on HEK293FT cells transfected with TF library (assay: Screening of TF condensates based on fluorescent puncta). Conditions: Figure 1B numerical data; TF library screen, one value per transcriptional factor.
Format: cell-based
In short: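 TF plasmids (final 1.6 μg/ml) reverse-transfected with PEI (4.8 μg/ml) into HEK293FT cells; after 60 h, cells cultured ±glucose for 12 h, fixed in 4% PFA and immunostained for Flag or GAL4 tags with Alexa 488 secondaries. Puncta scored by automated imaging of 50 random fields per well.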

Row | Molecule | Z score of condensed fraction
1 | ZNF770 (protein, UniProt Q6IQ21 1-691, looked up) Zinc finger protein 770: MMAENNLKMLKIQQCVVANKLPRNRPYVCNICFKHFETPSKLARHYLIHTGQKPFECDVCHKTFRQLVHLERHQLTHSLPFKCSICQRHFKNLKTFVKHQQLHNETYQNNVKQVRRLLEAKQEKSMYGVYNTFTTEERWALHPCSKSDPMYSMKRRKNIHACTICGKMFPSQSKLDRHVLIHTGQRPFKCVLCTKSFRQSTHLKIHQLTHSEERPFQCCFCQKGFKIQSKLLKHKQIHTRNKAFRALLLKKRRTESRPLPNKLNANQGGFENGEIGESEENNPLDVHSIYIVPFQCPKCEKCFESEQILNEHSCFAARSGKIPSRFKRSYNYKTIVKKILAKLKRARSKKLDNFQSEKKVFKKSFLRNCDLISGEQSSEQTQRTFVGSLGKHGTYKTIGNRKKKTLTLPFSWQNMGKNLKGILTTENILSIDNSVNKKDLSICGSSGEEFFNNCEVLQCGFSVPRENIRTRHKICPCDKCEKVFPSISKLKRHYLIHTGQRPFGCNICGKSFRQSAHLKRHEQTHNEKSPYASLCQVEFGNFNNLSNHSGNNVNYNASQQCQAPGVQKYEVSESDQMSGVKAESQDFIPGSTGQPCLPNVLLESEQSNPFCSYSEHQEKNDVFLYRCSVCAKSFRSPSKLERHYLIHAGQKPFECSVCGKTFRQAPHWKRHQLTHFKERPQGKVVALDSVM | -0.4682
2 | ZNF791 (protein, UniProt Q3KP31 1-576, looked up) Zinc finger protein 791: MDSVAFEDVSVSFSQEEWALLAPSQKKLYRDVMQETFKNLASIGEKWEDPNVEDQHKNQGRNLRSHTGERLCEGKEGSQCAENFSPNLSVTKKTAGVKPYECTICGKAFMRLSSLTRHMRSHTGYELFEKPYKCKECEKAFSYLKSFQRHERSHTGEKPYKCKQCGKTFIYHQPFQRHERTHIGEKPYECKQCGKALSCSSSLRVHERIHTGEKPYECKQCGKAFSCSSSIRVHERTHTGEKPYACKECGKAFISHTSVLTHMITHNGDRPYKCKECGKAFIFPSFLRVHERIHTGEKPYKCKQCGKAFRCSTSIQIHERIHTGEKPYKCKECGKSFSARPAFRVHVRVHTGEKPYKCKECGKAFSRISYFRIHERTHTGEKPYECKKCGKTFNYPLDLKIHKRNHTGEKPYECKECAKTFISLENFRRHMITHTGDGPYKCRDCGKVFIFPSALRTHERTHTGEKPYECKQCGKAFSCSSYIRIHKRTHTGEKPYECKECGKAFIYPTSFQGHMRMHTGEKPYKCKECGKAFSLHSSFQRHTRIHNYEKPLECKQCGKAFSVSTSLKKHMRMHNR | -0.6142
3 | CDX2 (protein, UniProt Q99626 1-313, looked up) Homeobox protein CDX-2: MYVSYLLDKDVSMYPSSVRHSGGLNLAPQNFVSPPQYPDYGGYHVAAAAAAAANLDSAQSPGPSWPAAYGAPLREDWNGYAPGGAAAAANAVAHGLNGGSPAAAMGYSSPADYHPHHHPHHHPHHPAAAPSCASGLLQTLNPGPPGPAATAAAEQLSPGGQRRNLCEWMRKPAQQSLGSQVKTRTKDKYRVVYTDHQRLELEKEFHYSRYITIRRKAELAATLGLSERQVKIWFQNRRAKERKINKKKLQQQQQQQPPQPPPPPPQPPQPQPGPLRSVPEPLSPVSSLQASVPGSVPGVLGPTGGVLNPTVTQ | -0.211
4 | ZNF800 (protein, UniProt Q2TB10 1-664, looked up) Zinc finger protein 800: MPLRDKYCQTDHHHHGCCEPVYILEPGDPPLLQQPLQTSKSGIQQIIECFRSGTKQLKHILLKDVDTIFECKLCRSLFRGLPNLITHKKFYCPPSLQMDDNLPDVNDKQSQAINDLLEAIYPSVDKREYIIKLEPIETNQNAVFQYISRTDNPIEVTESSSTPEQTEVQIQETSTEQSKTVPVTDTEVETVEPPPVEIVTDEVAPTSDEQPQESQADLETSDNSDFGHQLICCLCRKEFNSRRGVRRHIRKVHKKKMEELKKYIETRKNPNQSSKGRSKNVLVPLSRSCPVCCKSFATKANVRRHFDEVHRGLRRDSITPDIATKPGQPLFLDSISPKKSFKTRKQKSSSKAEYNLTACKCLLCKRKYSSQIMLKRHMQIVHKITLSGTNSKREKGPNNTANSSEIKVKVEPADSVESSPPSITHSPQNELKGTNHSNEKKNTPAAQKNKVKQDSESPKSTSPSAAGGQQKTRKPKLSAGFDFKQLYCKLCKRQFTSKQNLTKHIELHTDGNNIYVKFYKCPLCTYETRRKRDVIRHITVVHKKSSRYLGKITASLEIRAIKKPIDFVLNKVAKRGPSRDEAKHSDSKHDGTSNSPSKKYEVADVGIEVKVTKNFSLHRCNKCGKAFAKKTYLEHHKKTHKANASNSPEGNKTKGRSTRSKALV | 3.058
5 | ZPF91 (protein, UniProt Q96JP5 2-570, looked up) E3 ubiquitin-protein ligase …: PGETEEPRPPEQQDQEGGEAAKAAPEEPQQRPPEAVAAAPAGTTSSRVLRGGRDRGRAAAAAAAAAVSRRRKAEYPRRRRSSPSARPPDVPGQQPQAAKSPSPVQGKKSPRLLCIEKVTTDKDPKEEKEEEDDSALPQEVSIAASRPSRGWRSSRTSVSRHRDTENTRSSRSKTGSLQLICKSEPNTDQLDYDVGEEHQSPGGISSEEEEEEEEEMLISEEEIPFKDDPRDETYKPHLERETPKPRRKSGKVKEEKEKKEIKVEVEVEVKEEENEIREDEEPPRKRGRRRKDDKSPRLPKRRKKPPIQYVRCEMEGCGTVLAHPRYLQHHIKYQHLLKKKYVCPHPSCGRLFRLQKQLLRHAKHHTDQRDYICEYCARAFKSSHNLAVHRMIHTGEKPLQCEICGFTCRQKASLNWHMKKHDADSFYQFSCNICGKKFEKKDSVVAHKAKSHPEVLIAEALAANAGALITSTDILGTNPESLTQPSDGQGLPLLPEPLGNSTSGECLLLEAEGMSKSYCSGTERVSLMADGKIFVGSGSSGGTEGLVMNSDILGATTEVLIEDSDSAGP | -0.03316
6 | ZSCAN1 (protein, UniProt Q8NBB4 1-408, looked up) Zinc finger and SCAN …: MLPRPKAPASPRRPQTPTPSEQDADPGPASPRDTEAQRLRFRQFQYHVASGPHLALGQLWTLCRQWLRPEARSKEQMLELLVLEQFLGALPSKMRTWVQSQGPRSCREAASLVEDLTQMCQQEVLVSLDSVEPQDWSFGEEEDGKSPRSQKEPSQASELILDAVAAAPALPEESEWLETTQLQQSLHTRAEAEAPRAPGLLGSRARLPLKPSIWDEPEDLLAGPSSDLRAEGTVISSPKGPSAQRISPRRRNRNTDQSGRHQPSLKHTKGGTQEAVAGISVVPRGPRGGRPFQCADCGMVFTWVTHFIEHQKTHREEGPFPCPECGKVFLHNSVLTEHGKIHLLEPPRKKAPRSKGPRESVPPRDGAQGPVAPRSPKRPFQCSVCGKAFPWMVHLIDHQKLHTAHGHM | 1.179
7 | ZSCAN10 (protein, UniProt Q96SZ4 1-780, looked up) Zinc finger and SCAN …: MLGESVPAAVEQEQLGEVKLEEEEAVSPEDPRRPESRLRPEVAHQLFRCFQYQEDMGPRASLSRLRELCGHWLRPALHTKKQILELLVLEQFLSVLPPHLLGRLQGQPLRDGEEVVLLLEGIHREPSHAGPLDFSCNAGKSCPRADVTLEEKGCASQVPSHSPKKELPAEEPSVLGPSDEPPRPQPRAAQPAEPGQWRLPPSSKQPLSPGPQKTFQALQESSPQGPSPWPEESSRDQELAAVLECLTFEDVPENKAWPAHPLGFGSRTPDKEEFKQEEPKGAAWPTPILAESQADSPGVPGEPCAQSLGRGAAASGPGEDGSLLGSSEILEVKVAEGVPEPNPELQFICADCGVSFPQLSRLKAHQLRSHPAGRSFLCLCCGKSFGRSSILKLHMRTHTDERPHACHLCGHRFRQSSHLSKHLLTHSSEPAFLCAECGRGFQRRASLVQHLLAHAQDQKPPCAPESKAEAPPLTDVLCSHCGQSFQRRSSLKRHLRIHARDKDRRSSEGSGSRRRDSDRRPFVCSDCGKAFRRSEHLVAHRRVHTGERPFSCQACGRSFTQSSQLVSHQRVHTGEKPYACPQCGKRFVRRASLARHLLTHGGPRPHHCTQCGKSFGQTQDLARHQRSHTGEKPCRCSECGEGFSQSAHLARHQRIHTGEKPHACDTCGHRFRNSSNLARHRRSHTGERPYSCQTCGRSFRRNAHLRRHLATHAEPGQEQAEPPQECVECGKSFSRSCNLLRHLLVHTGARPYSCTQCGRSFSRNSHLLRHLRTHARETLY | -0.1901
8 | ZXDA (protein, UniProt P98168 1-799, looked up) Zinc finger X-linked protein …: MEIPKLLPARGTLQGGGGGGIPAGGGRVHRGPDSPAGQVPTRRLLLPRGPQDGGPGRRREEASTASRGPGPSLFAPRPHQPSGGGDDFFLVLLDPVGGDVETAGSGQAAGPVLREEAKAGPGLQGDESGANPAGCSAQGPHCLSAVPTPAPISAPGPAAAFAGTVTIHNQDLLLRFENGVLTLATPPPHAWEPGAAPAQQPRCLIAPQAGFPQAAHPGDCPELRSDLLLAEPAEPAPAPAPQEEAEGLAAALGPRGLLGSGPGVVLYLCPEALCGQTFAKKHQLKMHLLTHSSSQGQRPFKCPLGGCGWTFTTSYKLKRHLQSHDKLRPFGCPAEGCGKSFTTVYNLKAHMKGHEQENSFKCEVCEESFPTQAKLGAHQRSHFEPERPYQCAFSGCKKTFITVSALFSHNRAHFREQELFSCSFPGCSKQYDKACRLKIHLRSHTGERPFLCDFDGCGWNFTSMSKLLRHKRKHDDDRRFMCPVEGCGKSFTRAEHLKGHSITHLGTKPFVCPVAGCCARFSARSSLYIHSKKHLQDVDTWKSRCPISSCNKLFTSKHSMKTHMVKRHKVGQDLLAQLEAANSLTPSSELTSQRQNDLSDAEIVSLFSDVPDSTSAALLDTALVNSGILTIDVASVSSTLAGHLPANNNNSVGQAVDPPSLMATSDPPQSLDTSLFFGTAATGFQQSSLNMDEVSSVSVGPLGSLDSLAMKNSSPEPQALTPSSKLTVDTDTLTPSSTLCENSVSELLTPAKAEWSVHPNSDFFGQEGETQFGFPNAAGNHGSQKERNLITVTGSSFLV | -0.8138
9 | ZZZ3 (protein, UniProt Q8IYH5 1-903, looked up) ZZ-type zinc …: MAASRSTRVTRSTVGLNGLDESFCGRTLRNRSIAHPEEISSNSQVRSRSPKKRPEPVPIQKGNNNGRTTDLKQQSTRESWVSPRKRGLSSSEKDNIERQAIENCERRQTEPVSPVLKRIKRCLRSEAPNSSEEDSPIKSDKESVEQRSTVVDNDADFQGTKRACRCLILDDCEKREIKKVNVSEEGPLNSAVVEEITGYLAVNGVDDSDSAVINCDDCQPDGNTKQNSIGSYVLQEKSVAENGDTDTQTSMFLDSRKEDSYIDHKVPCTDSQVQVKLEDHKIVTACLPVEHVNQLTTEPATGPFSETQSSLRDSEEEVDVVGDSSASKEQCKENTNNELDTSLESMPASGEPEPSPVLDCVSAQMMSLSEPQEHRYTLRTSPRRAAPTRGSPTKNSSPYRENGQFEENNLSPNETNATVSDNVSQSPTNPGEISQNEKGICCDSQNNGSEGVSKPPSEARLNIGHLPSAKESASQHITEEEDDDPDVYYFESDHVALKHNKDYQRLLQTIAVLEAQRSQAVQDLESLGRHQREALKNPIGFVEKLQKKADIGLPYPQRVVQLPEIVWDQYTHSLGNFEREFKNRKRHTRRVKLVFDKVGLPARPKSPLDPKKDGESLSYSMLPLSDGPEGSSSRPQMIRGRLCDDTKPETFNQLWTVEEQKKLEQLLIKYPPEEVESRRWQKIADELGNRTAKQVASRVQKYFIKLTKAGIPVPGRTPNLYIYSKKSSTSRRQHPLNKHLFKPSTFMTSHEPPVYMDEDDDRSCFHSHMNTAVEDASDDESIPIMYRNLPEYKELLQFKKLKKQKLQQMQAESGFVQHVGFKCDNCGIEPIQGVRWHCQDCPPEMSLDFCDSCSDCLHETDIHKEDHQLEPIYRSETFLDRDYCVSQGTSYNYLDPNYFPANR | -0.9122

— article PMC11574045, “A cofactor-induced repressive type of transcription factor condensation can be induced by synthetic peptides to suppress tumorigenesis” (The EMBO Journal, 2024)
